Laboratory results published in patent US20240124585A1 (SUTRO BIOPHARMA, published 2024).
Where a chain is given by its changes, count along the chain named. In names and notes the source's numbering stands. Like-named read-outs stand apart in the source and are kept apart here.

B1: 2037-B10_Hc-A59D (antibody, human IgG1, lambda, V domains shown)
VH: EVQLVESGGGLVKPGGSLRLSCAASGFTFNKYAMNWVRQAPGKGLEWVARIRTKYNNYDTYYADSVKDRFTISRDDSKNTAYLQMNSLKTEDTAVYYCVRHGNFGNSYISYWAYWGQGTPVTVSS
VL: QTVVTQEPSLTVSPGGTVTLTCGSSTGAVTSGYYPNWLQQKPGQAPRGLIGGTKFLAPGTPARFSGSLLGGKAALTLSGVQPEDEAEYYCALWYSNRWVFGGGTQLTVTG
notes: human IgG1, lambda; also called SRP 2037 A59D; 2037-B10_VH-A59D
B2: 2037-B10_Hc-F27D (antibody, human IgG1, lambda, V domains shown)
VH: B1 VH with F27D, D59A
VL: B1 VL
notes: human IgG1, lambda; also called SRP 2037 F27D; 2037-B10_VH-F27D
B3: 2037-B10_Hc-N30D (antibody, human IgG1, lambda, V domains shown)
VH: B1 VH with N30D, D59A
VL: B1 VL
notes: human IgG1, lambda; also called SRP 2037 N30D; 2037-B10_VH-N30D
B4: SRP 2037-B10 F104D/R97D (antibody, human IgG1, lambda, V domains shown)
VH: B1 VH with D59A, F104D
VL: B1 VL with R97D
notes: human IgG1, lambda
B5: 2037-B10_Hc-A33D (antibody, human IgG1, V domains shown)
VH: B1 VH with A33D, D59A
VL: B1 VL
notes: human IgG1, lambda; also called SRP 2037 A33D; 2037-B10_VH-A33D
B6: 2037-B10_Hc-K31D (antibody, human IgG1, lambda, V domains shown)
VH: B1 VH with K31D, D59A
VL: B1 VL
notes: human IgG1, lambda; also called SRP 2037 K31D; 2037-B10_VH-K31D
B7: 2037-B10_Hc-R52D (antibody, human IgG1, lambda, V domains shown)
VH: B1 VH with R52D, D59A
VL: B1 VL
notes: human IgG1, lambda; also called SRP 2037 R52D; 2037-B10_VH-R52D
B8: 2037-B10_Lc-S95D (antibody, V domains shown)
VH: not shown
VL: B1 VL with S95D
notes: human IgG1, lambda; also called SRP 2037 S95D; 2037-B10 VL-S95D
B9: 2037-B10_Lc-N96D (antibody, V domains shown)
VH: not shown
VL: B1 VL with N96D
notes: human IgG1, lambda; also called SRP 2037 N96D; 2037-B10 VL-N96D
B10: 2037-B10_Hc-K54D (antibody, human IgG1, lambda, V domains shown)
VH: B1 VH with K54D, D59A
VL: B1 VL
notes: human IgG1, lambda; also called SRP 2037 K54D; 2037-B10_VH-K54D
B11: 2037-B10_Lc-W93D (antibody, V domains shown)
VH: not shown
VL: B1 VL with W93D
notes: human IgG1, lambda; also called SRP 2037 W93D; 2037-B10 VL-W93D
B12: SRP 2037-B10 Y55D/LC5 (antibody, human IgG1, kappa, V domains shown)
VH: B1 VH with Y55D, D59A
VL: DTQVTQSPSLSASVGDRVTITCGSSTGAVTSGYYPNWLQQKPGQAPRGLIGGTKFLAPGVPSRFSGSGSGTDFTLTISSLQPEDFATYYCALWYSNRWVFGGGTKVEIKR
notes: human IgG1, kappa
B13: 2037-B10_Hc-G105D (antibody, human IgG1, lambda, V domains shown)
VH: B1 VH with D59A, G105D
VL: B1 VL
notes: human IgG1, lambda; also called SRP 2037 G105D; 2037-B10_VH-G105D
B14: 2037-B10_Hc-R50D (antibody, human IgG1, lambda, V domains shown)
VH: B1 VH with R50D, D59A
VL: B1 VL
notes: human IgG1, lambda; also called SRP 2037 R50D; 2037-B10_VH-R50D
B15: SRP 2037-B10 S107D/R97D (antibody, human IgG1, lambda, V domains shown)
VH: B1 VH with D59A, S107D
VL: B1 VL with R97D
notes: human IgG1, lambda
B16: 2037-B10_Lc-Y94D (antibody, V domains shown)
VH: not shown
VL: B1 VL with Y94D
notes: human IgG1, lambda; also called SRP 2037 Y94D; 2037-B10 VL-Y94D
B17: 2037-B10_Hc-N106D (antibody, human IgG1, lambda, V domains shown)
VH: B1 VH with D59A, N106D
VL: B1 VL
notes: human IgG1, lambda; also called SRP 2037 N106D; 2037-B10_VH-N106D
B18: 2037-B10_Hc-N103D (antibody, human IgG1, lambda, V domains shown)
VH: B1 VH with D59A, N103D
VL: B1 VL
notes: human IgG1, lambda; also called SRP 2037 N103D; 2037-B10_VH-N103D
B19: SRP 2037-B10 S107D/LC5 (antibody, human IgG1, kappa, V domains shown)
VH: B1 VH with D59A, S107D
VL: B12 VL
notes: human IgG1, kappa
B20: 2037-B10_Hc-N56D (antibody, human IgG1, lambda, V domains shown)
VH: B1 VH with N56D, D59A
VL: B1 VL
notes: human IgG1, lambda; also called SRP 2037 N56D; 2037-B10_VH-N56D
B21: SRP 2037-B10 Y61D/LC5 (antibody, human IgG1, kappa, V domains shown)
VH: B1 VH with D59A, Y61D
VL: B12 VL
notes: human IgG1, kappa
B22: 2037-B10_Hc-Y108D (antibody, human IgG1, lambda, V domains shown)
VH: B1 VH with D59A, Y108D
VL: B1 VL
notes: human IgG1, lambda; also called 2037-B10_VH-Y108D
B23: SRP 2037-B10 F29D/R97D (antibody, human IgG1, lambda, V domains shown)
VH: B1 VH with F29D, D59A
VL: B1 VL with R97D
notes: human IgG1, lambda
B24: SRP 2037-B10 F104D/LC5 (antibody, human IgG1, kappa, V domains shown)
VH: B1 VH with D59A, F104D
VL: B12 VL
notes: human IgG1, kappa

How the values were obtained:
[1] = target: T1, human CD3 on T-cell lines (CD3-expressing Jurkat cells; HUT78 cells) (human, UniProt P07766 23-207); test: flow cytometry, HUT78 cells
T1 construct: On cells it stands in the CD3/TCR complex
T1 sequence (P07766 23-207 limits assumed): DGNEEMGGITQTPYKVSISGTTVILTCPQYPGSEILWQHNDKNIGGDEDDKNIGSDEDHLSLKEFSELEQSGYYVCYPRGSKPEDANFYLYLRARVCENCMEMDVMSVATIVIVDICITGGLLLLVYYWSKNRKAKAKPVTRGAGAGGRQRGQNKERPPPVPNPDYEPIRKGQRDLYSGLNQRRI

[2] = target: T2, human CD3 epsilon (Acro Cat #CDE-H5223) (human, UniProt P07766 23-126); test: SPR (Biacore), antibody captured, human CD3 epsilon analyte
T2 construct: Bought recombinant protein; also called rhCD3E
T2 sequence (P07766 23-126 limits assumed): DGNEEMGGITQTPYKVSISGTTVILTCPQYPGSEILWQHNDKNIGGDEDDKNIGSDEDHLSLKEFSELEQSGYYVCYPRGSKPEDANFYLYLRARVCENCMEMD
Description: (§1) Anti-Fab or anti-Fc polyclonal antibodies were immobilized onto a CM5 chip (GE Life Sciences) using amine coupling chemistry (from Amine Coupling Kit, GE Life Sciences). The immobilization steps were carried out at a flow rate of 25 μl/min in 1×HBS-EP+ buffer (GE Life Sciences; 10× Stock diluted before use). The sensor surfaces were activated for 7 min with a mixture of NHS (0.05 M) and EDC (0.2 M). The Anti-Fab or Anti-Fc antibodies were injected over all 4 flow cells at a concentration of 25 μg/mL in 10 mM sodium acetate, pH 4.5, for 7 min. Ethanolamine (1 M, pH 8.5) was injected for 7 min to block any remaining activated groups.
(§2) Off-rate and kinetic binding experiments were performed at 25° C. using 1×HBS-EP+ buffer. Test and control antibodies were injected over the anti-Fab or anti-Fc surface at concentrations of 5-10 μg/mL for 12 seconds at a flow rate of 10 μL/min on flow cells 2, 3 and 4, followed by a buffer wash for 30 seconds at the same flow rate. […] After capturing ligand (antibody) on the anti-Fc or anti-Fab surface, the analyte (human CD3 epsilon, Acro Cat #CDE-H5223) was bound for 180 seconds, followed by a 600 second dissociation phase at a flow rate of 50 μL/min. Between each ligand capture and analyte binding cycle, regeneration was carried out using two injections of 10 mM Glycine pH 2.0 for 30 seconds at 30 μL/min, followed by a 30 second buffer wash step.
(§3) The data was fit with the Biacore T200 Evaluation software, using a 1-1 Langmuir binding model. KD (affinity, nM) was determined as a ratio of the kinetic rate constants calculated from the fits of the association and dissociation phases.

[3] = target: T1, human CD3 on T-cell lines …; test: flow cytometry, HUT78 cells; remark: listed apart in the source
[4] = target: T2, human CD3 epsilon (Acro Cat #CDE-H5223); test: SPR (Biacore), antibody captured, human CD3 epsilon analyte; remark: listed apart in the source
Description: as §1, §2, §3

Binder	Bmax (MFI) [1] [MFI]	Kd [1] [nM]	Kd [2] [nM]	koff [2] [s⁻¹]	kon [2] [M⁻¹ s⁻¹]	HUT78 Bmax [3]	Kd [3] [nM]	Kd [4] [nM]	koff [4] [s⁻¹]	kon [4] [M⁻¹ s⁻¹]
B1	742	0.07	0.476	0.000251	527000					
B2	1360	1.27	1.07	0.000278	259000					
B3	989	0.22	0.36	0.000189	524000					
B4						2710	126	6.99	0.000115	16400
B5	103	8.57								
B6	1060	0.94	1.39	0.000377	271000					
B7	142	14.1								
B8	896	0.29								
B9	1220	0.43	0.596	0.000265	445000					
B10	857	0.37	0.856	0.000289	337000					
B11	88	21.9			7720					
B12						442	174			
B13	1010	0.36	0.767	0.000207	270000					
B14	119	6.61								
B15						1800	38.1	15.8	0.000474	30100
B16	1600	0.7								
B17	1010	0.26	0.841	0.000277	329000					
B18	166	28.6	85	0.000583	6860					
B19						404	86.4			
B20	216	27.4	5.37	0.000668	124000					
B21						772	312			
B22	820	0.12	0.239	0.00019	796000					
B23								185	0.000761	4110
B24						523	226			
